In article PMC6962361:

Target: Fpr C151Stop (Fowlpox virus) (UniProt A0A385H9X4)
Test: fluorescence polarization
Details: FP: 25 mM Tris-HCl pH 7.4, 100 mM NaCl, 5 mM EDTA, 1% glycerol, 10 nM DNA, 37 C 20 min, protein as dimer; NMR: 25 mM L-Arg, 25 mM L-Glu, 303 K

CGGAGGCCTAGCGTCCGGAATTCTCGTTTCGAGAATTCCGGATTAGGGATCCGCG / CGCGGATCCCTAAGCTCCATCGATCGTTTCGATCGATGGAGCCGCTAGGCCTCCG [F13/13HJ (FHJ13/13)]
Kd: 168 nM
